Results taken from FireProtDB (doi:10.1021/bi00123a006).

B1: Ribonuclease, P00648 (parent)
chain: MMKMEGIALKKRLSWISVCLLVLVSAAGMLFSTAAKTETSSHKAHTEAQVINTFDGVADYLQTYHKLPDNYITKSEAQALGWVASKGNLADVAPGKSIGGDIFSNREGKLPGKSGRTWREADINYTSGFRNSDRILYSSDWLIYKTTDHYQTFTKIR

Variants of: B1
Details: Bacillus amyloliquefaciens, 25 °C, Urea, NMR, NaCl 1 M, structure 1BNI, whole UniProt chain shown

With T53H the “ddG of mutation (higher = less stable)” value (pH 4.4, Sodium acetate 30 mM) was 2.65 kcal/mol, the unfolding free energy (pH 4.4, Sodium acetate 30 mM) was 5.48 kcal/mol and the “ddG of mutation (higher = less stable)” value (pH 8.9, Tris 30 mM) was 1.56 kcal/mol. It also gave an unfolding free energy (pH 8.9, Tris 30 mM) of 6.49 kcal/mol.

For H65G W141L, the unfolding free energy (pH 5.9, MES 30 mM) was 8.11 kcal/mol, the “ddG of mutation (higher = less stable)” value (pH 8.9, Tris 30 mM) was -0.33 kcal/mol and the unfolding free energy (pH 8.9, Tris 30 mM) was 8.38 kcal/mol.

For G81H, the “ddG of mutation (higher = less stable)” value (pH 4.4, Sodium acetate 30 mM) was 2.6 kcal/mol, the unfolding free energy (pH 4.4, Sodium acetate 30 mM) was 5.53 kcal/mol and the “ddG of mutation (higher = less stable)” value (pH 8.9, Tris 30 mM) was 3.15 kcal/mol. For the same variant, the unfolding free energy (pH 8.9, Tris 30 mM) was 4.9 kcal/mol.

For T73H D101N, the “ddG of mutation (higher = less stable)” value (pH 4.4, Sodium acetate 30 mM) was 5.74 kcal/mol, the unfolding free energy (pH 4.4, Sodium acetate 30 mM) was 2.39 kcal/mol and the “ddG of mutation (higher = less stable)” value (pH 8.9, Tris 30 mM) was 4.27 kcal/mol. The unfolding free energy (pH 8.9, Tris 30 mM) was 3.78 kcal/mol.

For W141L, the unfolding free energy (pH 5.9, MES 30 mM) was 7.67 kcal/mol, the “ddG of mutation (higher = less stable)” value (pH 8.9, Tris 30 mM) was 0.64 kcal/mol and the unfolding free energy (pH 8.9, Tris 30 mM) was 7.41 kcal/mol.

In the case of D101N, the “ddG of mutation (higher = less stable)” value (pH 4.4, Sodium acetate 30 mM) is reported as 2.65 kcal/mol, the unfolding free energy (pH 4.4, Sodium acetate 30 mM) is reported as 5.48 kcal/mol and the “ddG of mutation (higher = less stable)” value (pH 8.9, Tris 30 mM) is reported as 2.32 kcal/mol. For the same variant, the unfolding free energy (pH 8.9, Tris 30 mM) was 5.73 kcal/mol.
